B1: CD33-TriNKET-C26 (ADI-28226 and a CD33-binding domain) (bispecific antibody, V domains shown)
VH 1: QVQLQQWGAGLLKPSETLSLTCAVYGGSFSGYYWSWIRQPPGKGLEWIGEIDHSGSTNYNPSLKSRVTISVDTSKNQFSLKLSSVTAADTAVYYCARARGPWSFDPWGQGTLVTVSS
VL 1: DIQMTQSPSTLSASVGDRVTITCRASQSISSWLAWYQQKPGKAPKLLIYKASSLESGVPSRFSGSGSGTEFTLTISSLQPDDFATYYCQQYGSFPITFGGGTKVEIK
VH 2: QVQLVQSGAEVKKPGASVKVSCKASGYTFTDYVVHWVRQAPGQGLEWMGYINPYNDGTKYNEKFKGRVTMTRDTSISTAYMELSRLRSDDTAVYYCARDYRYEVYGMDYWGQGTLVTVSS
VL 2: DIVLTQSPASLAVSPGQRATITCTASSSVNYIHWYQQKPGQPPKLLIYDTSKVASGVPARFSGSGSGTDFTLTINPVEANDTANYYCQQWRSYPLTFGQGTKLEIK
notes: also called C26-TriNKET-CD33; CD33-targeting TriNKET
B2: CD33-TriNKET-F04 (ADI-29404 and a CD33-binding domain) (bispecific antibody, V domains shown)
VH 1: B1 VH 1
VL 1: DIQMTQSPSTLSASVGDRVTITCRASQSISSWLAWYQQKPGKAPKLLIYKASSLESGVPSRFSGSGSGTEFTLTISSLQPDDFATYYCEQYDSYPTFGGGTKVEIK
VH 2: B1 VH 2
VL 2: B1 VL 2
notes: also called F04-TriNKET-CD33; CD33-targeting TriNKET
B3: mcFAE-C26.99 TriNKET (bispecific antibody, mouse IgG2c)
light 1: DIQMTQSPSTLSASVGDRVTITCRASQSISSWLAWYQQKPGKAPKLLIYKASSLESGVPSRFSGSGSGTEFTLTISSLQPDDFATYYCQQYGSFPITFGGGTKVEIKRADAAPTVSIFPPSSEQLTSGGASVVCFLNNFYPKDINVKWKIDGSERQNGVLNSWTDQDSKDSTYSMSSTLTLTKDEYERHNSYTCEATHKTSTSPIVKSFNRNEC
heavy 1: QVQLQQWGAGLLKPSETLSLTCAVYGGSFSGYYWSWIRQPPGKGLEWIGEIDHSGSTNYNPSLKSRVTISVDTSKNQFSLKLSSVTAADTAVYYCARARGPWSFDPWGQGTLVTVSSAKTTAPSVYPLAPVCGGTTGSSVTLGCLVKGYFPEPVTLTWNSGSLSSGVHTFPALLQSGLYTLSSSVTVTSNTWPSQTITCNVAHPASSTKVDKKIEPRVPITQNPCPPLKECPPCAAPDLLGGPSVFIFPPKIKDVLMISLSPMVTCVVVDVSEDDPDVQISWFVNNVEVHTAQTQTHREDYNSTLRVVSALPIQHQDWMSGKEFKCKVNNRALPSPIEKTISKPRGPVRAPQVYVLPPPAEEMTKKEFSLTCMIKGFLPAEIAVDWTSNGRTEQNYKNTATVLDSDGSYFMYSRLRVQKSTWERGSLFACSVVHEGLHNHLTTKTISRSLGK
light 2: DIQMSQSPASLSASVGETVTITCRASGNIYNYLAWYQQKQGKSPHLLVYDAKTLADGVPSRFSGSGSGTQYSLKISSLQTEDSGNYYCQHFWSLPFTFGSGTKLEIKRADAAPTVSIFPPSSEQLTSGGASVVCFLNNFYPKDINVKWKIDGSERQNGVLNSWTDQDSKDSTYSMSSTLTLTKDEYERHNSYTCEATHKTSTSPIVKSFNRNEC
heavy 2: EVQLQQSGAELVRPGALVKLSCKTSGFNIKDYFLHWVRQRPDQGLEWIGWINPDNGNTVYDPKFQGTASLTADTSSNTVYLQLSGLTSEDTAVYFCTRRDYTYEKAALDYWGQGASVIVSSAKTTAPSVYPLAPVCGGTTGSSVTLGCLVKGYFPEPVTLTWNSGSLSSGVHTFPALLQSGLYTLSSSVTVTSNTWPSQTITCNVAHPASSTKVDKKIEPRVPITQNPCPPLKECPPCAAPDLLGGPSVFIFPPKIKDVLMISLSPMVTCVVVDVSEDDPDVQISWFVNNVEVHTAQTQTHREDYNSTLRVVSALPIQHQDWMSGKEFKCKVNNRALPSPIEKTISKPRGPVRAPQVYVLPPPAEEMTKKEFSLTCMITGFLPAEIAVDWTSNGRTEQNYKNTATVLDSDGSYLMYSKLTVQKSTWERGSLFACSVVHEGLHNHLTTKTISRSLGK
notes: also called murine cFAE-C26.99 TriNKET; TA99 TriNKET

How the values were obtained:
[1] = molecular target: T1, CD33 expressed on MV4-11 human AML cells (human, UniProt P20138 18-364); assay: flow cytometry on MV4-11 cells, anti-human IgG secondary
T1 construct: whole, on cells; also called cell-expressed CD33
Text: Human AML cell line MV4-11, expressing CD33 was used to assay the binding of TriNKETs to the tumor associated antigen.

[2] = molecular target: T2, Tyrp-1 on B16F10 melanoma cells (UniProt P07147 25-537, limits assumed); assay: flow cytometry on B16F10 tumor cells, 60 ug/mL with four-fold dilutions, goat anti-mouse PE secondary (FIG. 50A)
T2 construct: whole, on cells; also called Tyrp-1-positive B16F10 melanoma cells; B16F10 tumor cells
Method: 60 μg/mL of indicated antibodies with four-fold dilutions were added to 2×10⁵ B16F10 tumor cells (FIG. 50A) or EL4-mNKG2D cells (FIG. 50B). Binding was assessed using a goat anti-mouse PE secondary antibody followed by flow cytometric analysis.

T1 sequence (P20138 18-364): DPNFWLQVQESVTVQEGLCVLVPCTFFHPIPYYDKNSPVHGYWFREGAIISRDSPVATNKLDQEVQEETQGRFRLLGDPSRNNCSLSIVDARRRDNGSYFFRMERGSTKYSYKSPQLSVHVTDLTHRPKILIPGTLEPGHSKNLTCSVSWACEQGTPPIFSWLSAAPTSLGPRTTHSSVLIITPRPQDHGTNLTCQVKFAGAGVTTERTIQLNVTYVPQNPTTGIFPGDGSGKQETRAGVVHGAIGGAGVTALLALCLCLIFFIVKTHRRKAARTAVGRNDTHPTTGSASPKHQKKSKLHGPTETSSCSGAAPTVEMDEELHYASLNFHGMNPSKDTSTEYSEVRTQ

Binder | binding result [1] | binding result [2]
B1 | binds | 
B2 | binds | 
B3 |  | binds

Source: patent US20200095327A1 (DRAGONFLY THERAPEUTICS, published 2020)
